{"source": "patent US20190184015A1", "about": "“IRRADIATION TREATMENT OF NEUROLOGICAL SENSATIONS BY PHOTOABLATION” (European Molecular Biology Laboratory, priority 2016, published 2019)", "molecules": {"B1": {"name": "BDNF^SNAP: recombinant BDNF protein with a SNAP-tag fused to its C-terminus (protein, UniProt P23560 19-247, looked up)", "Neurotrophic factor BDNF …": "APMKEANIRGQGGLAYPGVRTHGTLESVNGPKAGSRGLTSLADTFEHVIEELLDEDQKVRPNEENNKDADLYTSRVMLSSQVPLEPPLLFLLEEYKNYLDAANMSMRVRRHSDPARRGELSVCDSISEWVTAADKKTAVDMSGGTVTVLEKVPVSKGQLKQYFYETKCNPMGYTKEGCRGIDKRHWNSQCRTTQSYVRALTMDSKKRIGWRFIRIDTSCVCTLTIKRGR", "modifications": "C-terminal SNAP tag", "notes": "recombinant BDNF protein with a SNAP-tag fused to its C-terminus"}, "B2": {"name": "IL31^SNAP-IR700: IL31^SNAP conjugated in vitro to benzylguanine modified IRDye®700DX phthalocyanine (conjugate)", "chain": "TCSLSFGAPISKEDLRTTIDLLKQESQDLYNNYSIKQASGMSADESIQLPCFSLDREALTNISVIIAHLEKVKVLSENTVDTSWVIRWLTNISCFNPLNLNISVPGNTDESYDCKVFVLTVLKQFSNCMAELQAKDNTTC", "modifications": "left off: small tags and cut ends", "notes": "IL31^SNAP conjugated in vitro to benzylguanine modified IRDye®700DX phthalocyanine"}, "B3": {"name": "IL31^K138A-SNAP-IR700 (conjugate)", "chain": "B2 chain with K115A", "modifications": "left off: small tags and cut ends"}}, "key": {"[1]": {"target": "TrkB (Homo sapiens, UniProt Q16620)", "sequence (Q16620 32-822, species assumed)": "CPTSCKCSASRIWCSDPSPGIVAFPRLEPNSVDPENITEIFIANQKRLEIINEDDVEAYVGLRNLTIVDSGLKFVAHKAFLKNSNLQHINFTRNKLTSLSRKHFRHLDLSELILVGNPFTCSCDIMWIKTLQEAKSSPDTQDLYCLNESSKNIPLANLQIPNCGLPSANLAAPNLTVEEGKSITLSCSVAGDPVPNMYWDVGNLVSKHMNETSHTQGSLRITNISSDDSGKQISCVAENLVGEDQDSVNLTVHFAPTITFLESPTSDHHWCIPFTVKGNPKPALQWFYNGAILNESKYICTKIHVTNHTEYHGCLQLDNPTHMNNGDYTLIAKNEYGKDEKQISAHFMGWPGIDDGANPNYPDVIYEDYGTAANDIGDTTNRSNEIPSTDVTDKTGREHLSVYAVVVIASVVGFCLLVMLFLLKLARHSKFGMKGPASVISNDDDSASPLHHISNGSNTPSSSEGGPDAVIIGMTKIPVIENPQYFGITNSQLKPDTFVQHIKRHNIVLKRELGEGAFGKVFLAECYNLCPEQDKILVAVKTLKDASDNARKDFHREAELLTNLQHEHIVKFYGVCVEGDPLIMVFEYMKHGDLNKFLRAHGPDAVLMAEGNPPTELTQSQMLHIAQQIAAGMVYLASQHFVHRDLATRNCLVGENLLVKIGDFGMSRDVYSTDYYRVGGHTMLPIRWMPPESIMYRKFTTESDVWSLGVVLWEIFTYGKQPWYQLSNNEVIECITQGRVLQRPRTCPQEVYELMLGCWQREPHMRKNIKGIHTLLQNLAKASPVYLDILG", "assay": "NGF^SNAP binding to Trk expressing cells"}, "[2]": {"test_system": "pain signaling (TrkA)", "assay": "Mechanical hypersensitivity after injection of the NGF ligand into the paw", "format": "in vivo, mouse", "details": "injected into the paw of mice"}, "[3]": {"target": "TrkC (Homo sapiens, UniProt Q16288)", "sequence (Q16288 32-839, species assumed)": "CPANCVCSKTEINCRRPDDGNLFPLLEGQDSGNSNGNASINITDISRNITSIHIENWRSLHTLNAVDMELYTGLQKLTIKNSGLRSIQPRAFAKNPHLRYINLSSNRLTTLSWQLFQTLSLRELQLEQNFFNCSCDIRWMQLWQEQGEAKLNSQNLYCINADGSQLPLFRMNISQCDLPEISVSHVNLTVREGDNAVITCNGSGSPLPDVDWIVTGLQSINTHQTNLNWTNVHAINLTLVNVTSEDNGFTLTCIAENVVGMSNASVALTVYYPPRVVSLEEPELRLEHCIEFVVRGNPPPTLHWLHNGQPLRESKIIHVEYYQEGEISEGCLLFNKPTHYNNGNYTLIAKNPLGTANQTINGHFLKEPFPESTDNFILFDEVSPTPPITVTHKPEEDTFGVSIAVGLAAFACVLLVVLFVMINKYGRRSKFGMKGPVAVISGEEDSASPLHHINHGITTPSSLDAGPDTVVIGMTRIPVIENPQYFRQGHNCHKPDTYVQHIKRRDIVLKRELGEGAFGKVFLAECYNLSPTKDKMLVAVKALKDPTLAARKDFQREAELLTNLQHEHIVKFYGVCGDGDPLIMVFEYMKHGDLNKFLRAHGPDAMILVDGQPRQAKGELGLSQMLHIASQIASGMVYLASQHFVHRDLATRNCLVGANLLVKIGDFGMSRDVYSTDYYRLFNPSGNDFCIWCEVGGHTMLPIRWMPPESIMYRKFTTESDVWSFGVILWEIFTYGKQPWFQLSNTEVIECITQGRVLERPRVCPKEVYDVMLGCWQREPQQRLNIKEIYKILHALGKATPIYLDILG", "assay": "NGF^SNAP binding to Trk expressing cells"}, "[4]": {"target": "T1, TrkB/p75 (Homo sapiens, UniProt Q16620)", "T1 construct": "expressed in transfected cells; host or cells: HEK293T", "T1 sequence (Q16620 32-822, species assumed)": "as the sequence (Q16620 32-822, species assumed) above", "assay": "BDNF^SNAP labelling of transfected HEK293T cells", "format": "binding", "details": "labelled with SNAP-Surface647", "excerpt": "(§1) In light of the clinical importance of mechanical allodynia in neuropathic pain patients, it was sought to develop a pharmacological strategy to exploit the striking selectivity of TrkB to the peripheral neurons which provoke this pain state. It was reasoned that BDNF, the ligand for TrkB, may give access to these neurons and allow for their manipulation in wildtype, non-transgenic animals. To this end the inventors produced a recombinant BDNF protein with a SNAP-tag fused to its C-terminus that would enable its chemical derivatization. BDNF^SNAP was labelled in vitro with fluorescent SNAP-Surface647 substrate and applied to HEK293T cells expressing neurotrophin receptors."}, "[5]": {"target": "T2, TrkC/p75 (Homo sapiens, UniProt Q16288)", "T2 construct": "expressed in transfected cells; host or cells: HEK293T", "T2 sequence (Q16288 32-839, species assumed)": "as the sequence (Q16288 32-839, species assumed) above", "assay": "BDNF^SNAP labelling of transfected HEK293T cells", "format": "binding", "details": "labelled with SNAP-Surface647", "excerpt": "as §1"}, "[6]": {"target": "T3, TrkA/p75 (Homo sapiens, UniProt P04629)", "T3 construct": "expressed in transfected cells; host or cells: HEK293T", "T3 sequence (P04629 33-796, species assumed)": "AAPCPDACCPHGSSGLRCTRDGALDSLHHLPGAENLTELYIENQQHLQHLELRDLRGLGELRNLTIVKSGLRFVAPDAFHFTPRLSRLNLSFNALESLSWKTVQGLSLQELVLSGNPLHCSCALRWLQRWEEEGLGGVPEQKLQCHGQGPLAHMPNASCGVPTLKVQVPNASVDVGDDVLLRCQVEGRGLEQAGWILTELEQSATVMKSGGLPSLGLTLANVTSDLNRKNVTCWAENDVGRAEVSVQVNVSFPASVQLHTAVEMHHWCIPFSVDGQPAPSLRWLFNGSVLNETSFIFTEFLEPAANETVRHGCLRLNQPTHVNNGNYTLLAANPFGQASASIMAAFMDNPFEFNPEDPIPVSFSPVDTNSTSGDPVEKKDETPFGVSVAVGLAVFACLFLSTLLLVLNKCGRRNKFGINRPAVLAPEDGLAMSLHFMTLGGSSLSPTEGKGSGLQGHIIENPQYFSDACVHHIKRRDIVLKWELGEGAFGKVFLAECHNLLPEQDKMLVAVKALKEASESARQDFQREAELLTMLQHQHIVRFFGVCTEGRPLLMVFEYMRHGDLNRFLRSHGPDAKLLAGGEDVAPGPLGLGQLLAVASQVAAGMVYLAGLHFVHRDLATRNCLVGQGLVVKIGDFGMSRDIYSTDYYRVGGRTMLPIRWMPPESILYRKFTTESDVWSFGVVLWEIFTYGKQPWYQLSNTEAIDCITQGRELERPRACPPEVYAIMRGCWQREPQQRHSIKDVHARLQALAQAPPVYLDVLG", "assay": "BDNF^SNAP labelling of transfected HEK293T cells", "format": "binding", "details": "labelled with SNAP-Surface647", "excerpt": "as §1"}, "[7]": {"target": "T4, native TrkB receptors in DRG neurons (Mus musculus, UniProt P15209)", "T4 construct": "whether BDNF^SNAP would recognize native TrkB receptors in DRG neurons; endogenous in cells; host or cells: dissociated dorsal root ganglion neurons from TrkBCreERT2::Rosa26RFP mice", "T4 sequence (P15209 32-821)": "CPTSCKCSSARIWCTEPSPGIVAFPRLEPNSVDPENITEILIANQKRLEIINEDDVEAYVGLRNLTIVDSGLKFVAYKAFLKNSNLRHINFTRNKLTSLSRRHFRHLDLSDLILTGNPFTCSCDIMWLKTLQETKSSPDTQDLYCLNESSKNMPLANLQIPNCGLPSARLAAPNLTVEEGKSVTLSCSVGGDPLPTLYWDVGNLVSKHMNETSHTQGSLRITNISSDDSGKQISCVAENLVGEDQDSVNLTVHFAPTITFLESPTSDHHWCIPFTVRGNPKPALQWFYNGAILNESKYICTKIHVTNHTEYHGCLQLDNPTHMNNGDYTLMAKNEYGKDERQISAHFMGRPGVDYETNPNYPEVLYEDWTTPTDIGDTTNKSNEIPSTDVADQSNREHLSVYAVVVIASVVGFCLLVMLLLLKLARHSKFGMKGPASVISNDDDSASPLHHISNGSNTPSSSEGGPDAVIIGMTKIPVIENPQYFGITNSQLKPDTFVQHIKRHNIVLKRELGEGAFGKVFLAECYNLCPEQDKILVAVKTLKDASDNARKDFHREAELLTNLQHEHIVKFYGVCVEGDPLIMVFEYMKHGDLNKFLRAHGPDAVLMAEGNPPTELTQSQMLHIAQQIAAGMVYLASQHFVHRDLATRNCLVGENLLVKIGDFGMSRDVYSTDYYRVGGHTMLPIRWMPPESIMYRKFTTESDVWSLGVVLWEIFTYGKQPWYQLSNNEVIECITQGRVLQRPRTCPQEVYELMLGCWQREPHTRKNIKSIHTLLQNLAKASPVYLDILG", "assay": "BDNF^SNAP Qdot 655 labelling of dissociated DRG", "format": "binding", "details": "conjugated to Qdot 655; dissociated DRG from TrkBCreERT2::Rosa26RFP mice", "excerpt": "The inventors further tested whether BDNF^SNAP would recognize native TrkB receptors in DRG neurons."}, "[8]": {"test_system": "primary keratinocytes", "assay": "In-vitro photo-ablation of primary keratinocytes (propidium iodide staining)", "format": "cell-based, mouse", "details": "near infra-red light, 24 hours after", "protocol": "1 μM IL31^SNAP and 3 μM BG-IR700 were coupled for 1 hour at 37° C. The coupling reaction was applied for 10 minutes at 37° C. on primary wild type and IL31RA^−/− keratinocytes. Cells were then exposed to near infra-red light (680 nm) at 40 J/cm^2 for 2 minutes. 24 hours after light exposure cell death was assessed by Propidium iodide (PI) staining (Invitrogen #P3566) and cells were imaged with an epifluorescent microscope."}, "[9]": {"test_system": "IL31 evoked scratching behavior", "assay": "Scratching during three days of IL31^SNAP-IR700 injection and illumination", "details": "injected three consecutive days and skin illuminated"}, "[10]": {"test_system": "IL31 receptor expressing cells", "assay": "In-vivo photo-ablation of skin, TUNEL assay", "parameters": "species or system mouse", "details": "IL31RA^−/− mice; injection and near infrared light"}, "[11]": {"test_system": "IL31RA expressing cells", "assay": "Cell type specificity of photo-ablation in skin", "format": "in vivo"}, "[12]": {"test_system": "mechanical sensitivity", "assay": "Von Frey test after photoablation in the hind paw", "format": "in vivo, mouse", "protocol": "Mice were habituated on an elevated platform with a mesh floor for 30 minutes. The plantar side of the hind paw was stimulated with calibrated von-Frey filaments (North coast medical #NC12775-99) to assess baseline levels of mechanical sensitivity. The stimulation was then repeated at the 3rd day after the last photoablation performed on the same paw considered for the baseline. As a control group, the animals were injected but not illuminated. The 50% paw withdrawal thresholds were calculated using the Up-Down method (26)."}, "[13]": {"test_system": "thermal sensitivity", "assay": "Hot plate test after photoablation in the hind paw", "format": "in vivo, mouse", "protocol": "Mice were injected for three consecutive days with […] coupled with BG-IR700 with or without near IR light illumination. 3 days after the last injection, mice were placed on top of a hot plate (Ugo Basile #35150) that was preset to 52° C. and the latency to response as distinguished by flicking or licking of the hind paw was observed. In order to avoid injury to the mice, a cutoff of 30 seconds was set."}, "[14]": {"test_system": "Calcipotriol model of atopic dermatitis", "assay": "Calcipotriol model of atopic dermatitis"}, "[15]": {"test_system": "acute itch evoked by IL31, histamine, chloroquine or LY344864", "assay": "Pruritogen evoked scratching after photoablation", "format": "in vivo, mouse", "protocol": "To characterize IL31^K138A-SNAP mediated photoablation in vivo, the inventors first tested its efficacy at alleviating IL31 provoked itch. Mice were treated for three consecutively days with IL31^K138A-SNAP-IR700 and the skin was illuminated with near-IR light. Strikingly, IL31-induced scratching behavior was abolished in these animals (FIG. 2f), and this persisted throughout an 8 week observation period (Supplementary FIG. 2l). […] The inventors next tested the effects of photoablation on scratching provoked by other acutely applied pruritogens. […] Finally, to assess the specificity of photoablation to itch sensation, the inventors examined other sensory modalities after treatment."}, "[16]": {"details": "prevention: injection and near IR illumination 3 days prior to Calcipotriol"}, "[17]": {"details": "rescue: subcutaneous injection and near IR light after 7 days Calcipotriol"}, "[18]": {"details": "topical application in water-in-oil micro-emulsion, near IR light"}, "[19]": {"details": "after photoablation with near-IR light"}}, "note": "Positions count from the first letter of the chain named. Names and notes keep the numbering of the source. “Also recorded” adds a separate entry of the source."}
{"molecule": "NGF^SNAP: recombinant NGF^SNAP protein", "values": [{"measurement": "binding to TrkB cells", "setting": "[1]", "value": "not TrkB or TrkC"}, {"measurement": "mechanical hypersensitivity provoked by the ligand", "setting": "[2]", "value": "strong sensitizing effect; also recorded: induces mechanical hypersensitivity"}, {"measurement": "binding to TrkC cells", "setting": "[3]", "value": "not TrkB or TrkC"}]}
{"molecule": "B1", "values": [{"measurement": "binding to HEK293T cells expressing TrkB/p75", "setting": "[4]", "value": "remarkable selectivity for its cognate receptor complex TrkB/p75"}, {"measurement": "binding to HEK293T cells expressing TrkC/p75", "setting": "[5]", "value": "did not bind"}, {"measurement": "binding to HEK293T cells expressing TrkA/p75", "setting": "[6]", "value": "did not bind"}, {"measurement": "overlap between BDNF^SNAP and TrkBCreERT2 positive cells", "setting": "[7]", "value": "> 95", "unit": "%"}]}
{"molecule": "B2", "values": [{"measurement": "cell death after illumination", "setting": "[8]; IL31RA^−/− keratinocytes", "value": "not evident"}, {"measurement": "cell death after illumination", "setting": "[8]; wild type keratinocytes", "value": "substantial cell death"}, {"measurement": "scratching bouts", "setting": "[9]", "value": "progressive decrease in scratching bouts"}, {"measurement": "TUNEL positive apoptotic cells in skin", "setting": "[10]", "value": "largely absent"}]}
{"molecule": "B3", "values": [{"measurement": "effect of photo-ablation on other cell types", "setting": "[11]", "value": "does not affect other cell types such as keratinocytes or epidermal Langerhans cells"}, {"measurement": "mechanical sensitivity (von Frey filaments)", "setting": "[12]", "value": "no difference in response properties"}, {"measurement": "thermal sensitivity (hot plate test)", "setting": "[13]", "value": "no difference in response properties"}, {"measurement": "development of dermatitis-like symptoms", "setting": "[14]; prevention: identical experiments in the absence of near IR illumination", "value": "normal development of dermatitis-like symptoms"}, {"measurement": "development of atopic dermatitis-like indicators", "setting": "[14]; [16]", "value": "completely abolished the development of all indicators"}, {"measurement": "scratching behavior", "setting": "[14]; [16]", "value": "remained at baseline levels"}, {"measurement": "skin appearance", "setting": "[14]; [16]", "value": "skin appeared healthy and typical features of dermatitis such as redness and scaling were entirely absent"}, {"measurement": "disease indicators of established dermatitis", "setting": "[14]; rescue: after 7 days Calcipotriol, subcutaneous injection and near IR light three days, over the course of 1 week", "value": "rescue of all disease indicators"}, {"measurement": "scratching behavior", "setting": "[14]; [17]", "value": "returned to baseline levels"}, {"measurement": "skin thickness, morphology and structure", "setting": "[14]; [17]", "value": "became indistinguishable from healthy mice"}, {"measurement": "reversal of dermatitis-like symptoms", "setting": "[14]; rescue: without subsequent near IR illumination (control)", "value": "not evident"}, {"measurement": "scratching behavior", "setting": "[14]; [18]", "value": "return to baseline levels of scratching behavior"}, {"measurement": "skin structure and histology", "setting": "[14]; [18]", "value": "normalization of skin structure and histology"}, {"measurement": "Calcipotriol provoked dermatitis-like symptoms", "setting": "[14]; topical application in water-in-oil micro-emulsion, near IR light 20 minutes later", "value": "both prevented and reversed Calcipotriol provoked dermatitis-like symptoms"}, {"measurement": "LY344864 evoked itch", "setting": "[15]; [19]", "value": "no significant effect"}, {"measurement": "chloroquine evoked itch", "setting": "[15]; [19]", "value": "no significant effect"}, {"measurement": "histamine evoked itch", "setting": "[15]; [19]", "value": "no significant effect"}, {"measurement": "IL31-evoked scratching", "setting": "[15]; injected but not illuminated (control)", "value": "no reduction in IL31-evoked scratching"}, {"measurement": "IL31-induced scratching behavior", "setting": "[15]; three consecutive days treatment with near-IR light", "value": "abolished"}, {"measurement": "persistence of abolished IL31-induced scratching", "setting": "[15]; with near-IR light, observation period", "value": "≥ 8", "unit": "week"}]}
